Holding throughout (conditions): both partners purified
Experiment [1] deals with T1, C3b (human, UniProt P01024 23-667; P01024 749-1663).
T1 construct: complement C3 beta chain, human; Immobilised by amine coupling, via the nascent thioester (physiological) or via the free thiol of hydrolysed C3b; the way is told in each assay's format; also called C3b(H2O); C3b-SH; source: bought: Complement Technologies, Inc. (human plasma-derived)
Kind of experiment: SPR; C1 chip, 144 RU C3b amine-coupled; FH flowed (2 μM to 7.8 nM, 2-fold series, duplicates); Biacore T200, 25 °C, HBS-P pH 7.4, 150 mM NaCl, 1 mM MgCl2; 1:1 steady-state model. For orientation: Surface plasmon resonance follows binding to a sensor surface in real time, without labels.

Experiment [2] has as its target T1, C3b. In words: SPR; homemade HJEM7 chip (50% OH, 25% COOH, 25% propargyl), 144 RU C3b amine-coupled; FH (2 μM to 3.9 nM) or FH 19–20 (10 μM to 3.9 nM) flowed; Biacore T200, 25 °C, HBS-P pH 7.4; 1:1 steady-state model.
The target in experiment [3] is T1, C3b. Kind of experiment: SPR; homemade HJEM2 chip (1% COOH, 99% OH), 313 RU C3b amine-coupled; FH flowed (2 μM to 3.9 nM); Biacore T200, 25 °C, HBS-P pH 7.4; 1:1 steady-state model.
Experiment [4] concerns the target T1, C3b. In words: SPR; homemade HJEM4 chip with maleimide groups, 240 RU hydrolyzed C3b coupled via its free thiol; FH flowed (2 μM to 3.9 nM); Biacore T200, 25 °C, HBS-P pH 7.4; 1:1 steady-state model.
For experiment [5], the target named is T1, C3b. Kind of experiment: SPR; C1 chip, 196 RU C3b immobilised physiologically (seed C3b, then seven cycles of FB+FD and C3); FH flowed (2 μM to 7.8 nM); Biacore T200, 25 °C, HBS-P pH 7.4; 1:1 steady-state model.
Experiment [6] addresses T1, C3b. In words: SPR; homemade HJEM7 chip, 143 RU C3b amine-coupled and 174 RU 3′-sialyllactose clicked on; FH (2 μM to 3.9 nM) or FH 19–20 (10 μM to 3.9 nM) flowed; Biacore T200, 25 °C, HBS-P pH 7.4; 1:1 steady-state model.

B1: factor H (natural protein, human, UniProt P08603 19-1231, looked up)
chain: EDCNELPPRRNTEILTGSWSDQTYPEGTQAIYKCRPGYRSLGNVIMVCRKGEWVALNPLRKCQKRPCGHPGDTPFGTFTLTGGNVFEYGVKAVYTCNEGYQLLGEINYRECDTDGWTNDIPICEVVKCLPVTAPENGKIVSSAMEPDREYHFGQAVRFVCNSGYKIEGDEEMHCSDDGFWSKEKPKCVEISCKSPDVINGSPISQKIIYKENERFQYKCNMGYEYSERGDAVCTESGWRPLPSCEEKSCDNPYIPNGDYSPLRIKHRTGDEITYQCRNGFYPATRGNTAKCTSTGWIPAPRCTLKPCDYPDIKHGGLYHENMRRPYFPVAVGKYYSYYCDEHFETPSGSYWDHIHCTQDGWSPAVPCLRKCYFPYLENGYNQNYGRKFVQGKSIDVACHPGYALPKAQTTVTCMENGWSPTPRCIRVKTCSKSSIDIENGFISESQYTYALKEKAKYQCKLGYVTADGETSGSITCGKDGWSAQPTCIKSCDIPVFMNARTKNDFTWFKLNDTLDYECHDGYESNTGSTTGSIVCGYNGWSDLPICYERECELPKIDVHLVPDRKKDQYKVGEVLKFSCKPGFTIVGPNSVQCYHFGLSPDLPICKEQVQSCGPPPELLNGNVKEKTKEEYGHSEVVEYYCNPRFLMKGPNKIQCVDGEWTTLPVCIVEESTCGDIPELEHGWAQLSSPPYYYGDSVEFNCSESFTMIGHRSITCIHGVWTQLPQCVAIDKLKKCKSSNLIILEEHLKNKKEFDHNSNIRYRCRGKEGWIHTVCINGRWDPEVNCSMAQIQLCPPPPQIPNSHNMTTTLNYRDGEKVSVLCQENYLIQEGEEITCKDGRWQSIPLCVEKIPCSQPPQIEHGTINSSRSSQESYAHGTKLSYTCEGGFRISEENETTCYMGKWSSPPQCEGLPCKSPPEISHGVVAHMSDSYQYGEEVTYKCFEGFGIDGPAIAKCLGEKWSHPPSCIKTDCLSLPSFENAIPMGEKKDVYKAGEQVTYTCATYYKMDGASNVTCINSRWTGRPTCRDTSCVNPPTVQNAYIVSRQMSKYPSGERVRYQCRSPYEMFGDEEVMCLNGNWTEPPQCKDSTGKCGPPPPIDNGDITSFPLSVYAPASSVEYQCQNLYQLEGNKRITCRNGQWSEPPKCLHPCVISREIMENYNIALRWTAKQKLYSRTGESVEFVCKRGYRLSSRSHTLRTTCWDGKLEYPTCAKR
notes: complement factor H, human, 155-kDa serum glycoprotein of 20 CCP modules; Free FH: flowed as analyte in SPR, or amine-coupled directly to the AFM tip; also called FH; CFH; source: isolated from human plasma (TCS Biosciences Ltd.)
Turning to B1, the Kd in the experiment with C3b [1] is 230 nM; with C3b [2], 70 nM; in the experiment with C3b [3] it was 50 nM; with C3b [4] it was 180 nM; with C3b [5] it was 130 nM; with C3b [6], 90 nM.

Broadly, the Kd is the free concentration of one partner at which half of the binding sites on the other are occupied at equilibrium, for simple one-to-one binding. Read a high Kd as weaker binding.
